Results published in patent US20200115458A1 (CALIFORNIA INSTITUTE FOR BIOMEDICAL RESEARCH, published 2020).
Changes are numbered by the printed parent chain.

Tests used:
[1] = molecular target: T1, human ASGPR (asialoglycoprotein receptor) (human, UniProt P07306 62-291); test: ELISA (FIG. 16)
T1 construct: also called human ASPGR; ASGPR antigen (human)
T1 sequence: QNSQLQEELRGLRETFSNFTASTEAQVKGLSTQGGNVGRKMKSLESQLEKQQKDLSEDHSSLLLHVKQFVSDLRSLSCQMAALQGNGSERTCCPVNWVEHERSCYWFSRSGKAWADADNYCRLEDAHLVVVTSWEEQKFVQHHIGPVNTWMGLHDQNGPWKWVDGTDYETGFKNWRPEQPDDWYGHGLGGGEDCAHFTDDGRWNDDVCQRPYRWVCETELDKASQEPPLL

rat ASGPR [2] = molecular target: T2, rat ASGPR (rat, UniProt P02706 61-284); test: ELISA (FIG. 16)
T2 construct: also called ASGPR antigen (rat)
T2 sequence: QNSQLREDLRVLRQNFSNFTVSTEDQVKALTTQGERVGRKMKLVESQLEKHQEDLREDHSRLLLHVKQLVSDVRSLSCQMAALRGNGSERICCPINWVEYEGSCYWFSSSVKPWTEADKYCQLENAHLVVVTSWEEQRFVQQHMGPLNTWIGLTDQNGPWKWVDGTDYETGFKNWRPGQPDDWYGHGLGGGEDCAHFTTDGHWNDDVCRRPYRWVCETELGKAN

cynomolgus monkey ASGPR [3] = molecular target: T3, cynomolgus monkey ASGPR (cynomolgus monkey, UniProt P07306 62-291 (human entry)); test: ELISA (FIG. 16)
T3 construct: also called cyno monkey ASGPR; cyno monkey ASPGR
T3 chain: T1 sequence with S3A, E7R, F16L, T91A, D221H

[4] = molecular target: T1, human ASGPR (asialoglycoprotein …); test: ELISA (FIG. 37)
Procedure: (§1) The activity of anti-ASGPR within Ins1-L3-Ab4 Fab and Ins1-L3-Ab5 Fab fusion proteins for human, rat, and cyno monkey ASGPR was tested by ELISA assay as shown in FIGS. 37-39 as generally described in Example 3. 100 ng/well ASGPR antigen (human, rat, and cyno monkey) was coated on 96-well plate in PBS 4° C. over night, blocked with 2% milk/PBST (0.5% Tween-20 in PBS) at room temperature for 1 hr, and incubated with the fusion proteins at 4 nM, 20 nM, 100 nM, and 500 nM in 2% milk/PBST at room temperature for 2 hr. Wells were then washed with PBST for 4-5 times, incubated with mouse anti-insulin (MA5-12037, ThermoFisher Scientific) in 2% milk/PBST at room temperature for 2 hr, washed with PBST for 4-5 times, incubated with goat anti-mouse IgG-HRP (115-035-008, Jackson ImmunoResearch) for 30 min, and washed with PBST for 4-5 times The plates were developed with QuantaBlu fluorogenic peroxidase substrate (Life technologies, 15169), and quantified using Spectramax fluorescence plate reader with excitation at 325 nm and emission at 420 nm.
(§2) The figures illustrate that anti-ASGPR antibodies fused to insulin therapeutic peptides retain activity for their antigen ASGPR as determined by ELISA assay.

rat ASGPR [5] = molecular target: T2, rat ASGPR; test: ELISA (FIG. 38)
Procedure: as §1, §2

cynomolgus monkey ASGPR [6] = molecular target: T3, cynomolgus monkey ASGPR; test: ELISA (FIG. 39)
Procedure: as §1, §2

[7] = molecular target: T1, human ASGPR (asialoglycoprotein …); test: ELISA, coated ASGPR antigen (FIG. 3)
Procedure: (§3) The activity of anti-ASGPR within the Ins1-L1-Ab1L IgG (SEQ ID NOS: 79, 29) and Ins1-L1-Ab1H IgG (SEQ ID NOS: 78, 30) fusion proteins for human ASGPR was tested by ELISA assay. Briefly, 100 ng/well ASGPR antigen (human, rat and cyno monkey) was coated on 96-well plate in PBS at 4° C. overnight; the wells were blocked with 2% milk/PBST (0.5% Tween-20 in PBS) at room temperature for 1 hr; antibodies were added in concentrations of 10 nM, 1 nM and 0.1 nM in 2% milk/PBST at room temperature for 2 hr; the wells were washed with PBST 4-5 times; anti-light chain kappa (sigma A7164) in 2% milk/PBST was added and the plate incubated at room temperature for 1 hr; the wells were washed with PBST 4-5 times; and the reaction was developed with QuantaBlu fluorogenic peroxidase substrate (Life technologies, 15169), and quantified using a Spectramax fluorescence plate reader with excitation at 325 nm and emission at 420 nm. […] The figures illustrate that anti-ASGPR antibodies fused to insulin therapeutic peptides retain activity for their antigen ASGPR.

rat ASGPR [8] = molecular target: T2, rat ASGPR; test: ELISA, 100 ng/well coated ASGPR antigen, antibodies at 10, 1 and 0.1 nM, anti-kappa detection
Procedure: as §3

B1: Ins1-L3-Ab4 Fab (Fab)
light: FVNQHLCGSDLVEALYLVCGERGFFYTDPTGGGPRRGIVEQCCHSICSLYQLENYCNGGGEAAAKEAAAKEAAAKAGGEIVLTQSPGTLSLSPGERATLSCSASSTISSNYLHWYQQKPGQAPRLLIYRTSDLASGIPDRFSGSGSGTDFTLTISRLEPEDFAVYYCQQGSSIPFTFGQGTKLEIKRTVAAPSVFIFPPSDEQLKSGTASVVCLLNNFYPREAKVQWKVDNALQSGNSQESVTEQDSKDSTYSLSSTLTLSKADYEKHKVYACEVTHQGLSSPVTKSFNRGEC
heavy: QVQLVQSGAEVKKPGASVKVSCKASGYTFTNYWMHWVRQAPGQGLEWMGRIDLNSGGTNYNYAQKFQGRVTMTRDTSISTAYMELSRLRSDDTAVYYCARYYGSSWFAYWGQGTLVTVSSASTKGPSVFPLAPSSKSTSGGTAALGCLVKDYFPEPVTVSWNSGALTSGVHTFPAVLQSSGLYSLSSVVTVPSSSLGTQTYICNVNHKPSNTKVDKKVEPKSCDKTHT
notes: also called Ins1-L3-Ab4L (Fab); Ins1-L3-Ab4L and Ab4H(Fab)
[1]
  binding result: binds
Rat ASGPR [2]
  binding result: binds
Cynomolgus monkey ASGPR [3]
  binding result: binds

B2: Ins1-L3-Ab4L IgG (antibody)
light: B1 light
heavy: QVQLVQSGAEVKKPGASVKVSCKASGYTFTNYWMHWVRQAPGQGLEWMGRIDLNSGGTNYNYAQKFQGRVTMTRDTSISTAYMELSRLRSDDTAVYYCARYYGSSWFAYWGQGTLVTVSSASTKGPSVFPLAPSSKSTSGGTAALGCLVKDYFPEPVTVSWNSGALTSGVHTFPAVLQSSGLYSLSSVVTVPSSSLGTQTYICNVNHKPSNTKVDKKVEPKSCDKTHTCPPCPAPPVAGPSVFLFPPKPKDTLMISRTPEVTCVVVDVSHEDPEVKFNWYVDGVEVHNAKTKPREEQYNSTYRVVSVLTVLHQDWLNGKEYKCKVSNKGLPSSIEKTISKAKGQPREPQVYTLPPSRDELTKNQVSLTCLVKGFYPSDIAVEWESNGQPENNYKTTPPVLDSDGSFFLYSKLTVDKSRWQQGNVFSCSVMHEALHNHYTQKSLSLSPGK
notes: Insulin immunoglobulin fusion protein: Ins1-L3-Ab4L light chain fusion paired with the full humanized heavy chain Ab4H; also called Ins1-L3-Ab4 IgG; Ins1-L3-Ab4L and Ab4H
[1]
  binding result: binds
Rat ASGPR [2]
  binding result: binds
Cynomolgus monkey ASGPR [3]
  binding result: binds

B3: Ins1-L3-Ab5 Fab (Fab)
light: B1 light
heavy: B1 heavy with R50W
notes: As Ins1-L3-Ab4 Fab but with the Ab5H Fab heavy chain (Ab4H mutated at position 50); also called Ins1-L3-Ab5L (Fab)
[4]
  binding result: binds
Rat ASGPR [5]
  binding result: binds
Cynomolgus monkey ASGPR [6]
  binding result: binds

B4: Ins1-L1-Ab1H IgG (antibody)
heavy: FVNQHLCGSDLVEALYLVCGERGFFYTDPTGGGPRRGIVEQCCHSICSLYQLENYCNGGGGSQVQLQQPGAELVKPGASVKLSCKASGYTFTNYWMHWVKQRPGRGLEWIGRIDLNSGGTNYNYNEKFKTKATLTVDKPSSTAYMQLSSLTSEDSAVYYCANYYGSSWFAYWGQGTTLTVSSAKTTAPSVYPLAPVCGDTTGSSVTLGCLVKGYFPEPVTLTWNSGSLSSGVHTFPAVLQSDLYTLSSSVTVTSSTWPSQSITCNVAHPASSTKVDKKIEPRGPTIKPCPPCKCPAPNLLGGPSVFIFPPKIKDVLMISLSPIVTCVVVDVSEDDPDVQISWFVNNVEVHTAQTQTHREDYNSTLRVVSALPIQHQDWMSGKEFKCKVNNKDLPAPIERTISKPKGSVRAPQVYVLPPPEEEMTKKQVTLTCMVTDFMPEDIYVEWTNNGKTELNYKNTEPVLDSDGSYFMYSKLRVEKKNWVERNSYSCSVVHEGLHNHHTTKSFSRTPGK
light: ETVLTQSPTTMATSPGEKITITCSASSTISSNYLHWYQQKPGFSPKLLIYRTSDLASGVPTRFSGSGSGTSYSLTIGTMEAEDVATYYCQQGSSIPFTFGSGTKLEINRADTAPTVSIFPPSSEQLTSGGASVVCFLNNFYPKDINVKWKIDGSERQNGVLNSWTDQDSKDSTYSMSSTLTLTKDEYERHNSYTCEATHKTSTSPIVKSFNRNEC
notes: also called Ins-L1-Ab1H IgG
[7]
  binding result: binds
Rat ASGPR [8]
  binding result: binds

B5: Ins1-L1-Ab1L IgG (antibody)
light: FVNQHLCGSDLVEALYLVCGERGFFYTDPTGGGPRRGIVEQCCHSICSLYQLENYCNGGGGSETVLTQSPTTMATSPGEKITITCSASSTISSNYLHWYQQKPGFSPKLLIYRTSDLASGVPTRFSGSGSGTSYSLTIGTMEAEDVATYYCQQGSSIPFTFGSGTKLEINRADTAPTVSIFPPSSEQLTSGGASVVCFLNNFYPKDINVKWKIDGSERQNGVLNSWTDQDSKDSTYSMSSTLTLTKDEYERHNSYTCEATHKTSTSPIVKSFNRNEC
heavy: QVQLQQPGAELVKPGASVKLSCKASGYTFTNYWMHWVKQRPGRGLEWIGRIDLNSGGTNYNYNEKFKTKATLTVDKPSSTAYMQLSSLTSEDSAVYYCANYYGSSWFAYWGQGTTLTVSSAKTTAPSVYPLAPVCGDTTGSSVTLGCLVKGYFPEPVTLTWNSGSLSSGVHTFPAVLQSDLYTLSSSVTVTSSTWPSQSITCNVAHPASSTKVDKKIEPRGPTIKPCPPCKCPAPNLLGGPSVFIFPPKIKDVLMISLSPIVTCVVVDVSEDDPDVQISWFVNNVEVHTAQTQTHREDYNSTLRVVSALPIQHQDWMSGKEFKCKVNNKDLPAPIERTISKPKGSVRAPQVYVLPPPEEEMTKKQVTLTCMVTDFMPEDIYVEWTNNGKTELNYKNTEPVLDSDGSYFMYSKLRVEKKNWVERNSYSCSVVHEGLHNHHTTKSFSRTPGK
notes: also called Ins-L1-Ab1L IgG; Ins1-L1-AbL IgG
[7]
  binding result: binds
Rat ASGPR [8]
  binding result: binds
